# In US20220273789A1:
# Values joined by “and” are separate entries in the source; they are usually repeats but may differ in a detail not shown here. Identical values can stand only once. Like-named read-outs stand apart in the source and are kept apart here.
# Columns and labels:
# human IgG (human) [1] = test: BLI (Octet), gEgI on Ni-NTA sensor, hIgG in solution
# human IgG (human) [2] = test: BLI Octet, construct on Ni-NTA sensor, hIgG in solution
# human IgG (human) [3] = test: BLI (Octet), gEgI on Ni-NTA sensor, hIgG in solution; remark: listed apart in the source
# [4] = target: Human IgG isotype control (ThermoFischer Scientific, ref 12000C) (human); test: BLI, gEgI on Ni-NTA tips, hIgG in solution
Substance,Kd (human IgG (human) [1]),Response (human IgG (human) [1]),Kd (human IgG (human) [2]),Response (nm) (human IgG (human) [2]),koff (human IgG (human) [2]),kon (human IgG (human) [2]),Kd [4],Relative Affinity (%) compared to control construct HSV34 [4],koff [4],kon [4],also measured
HSV2-gE_A246W R320G_gI (from UniProt P89475 21-416; P06764 21-256) (receptor),1e-06 µM,0.0639 nm,< 1e-06 µM,0.0639 nm,< 1e-07 s⁻¹,3430 M⁻¹ s⁻¹,–,–,–,–,–
HSV2-gE_A246W R320T_gI (from UniProt P89475 21-416; P06764 21-256) (receptor),1e-06 µM,0.0712 nm,< 1e-06 µM,0.0712 nm,< 1e-07 s⁻¹,1510 M⁻¹ s⁻¹,–,–,–,–,–
HSV2-gE_A246W-R320D_gI (from UniProt P89475 21-416; P06764 21-256) (receptor),1e-06 µM,0.0712 nm,–,–,–,–,–,–,–,–,–
HSV2-gE_A246W_gI (from UniProt P89475 21-416; P06764 21-256) (receptor),6.91 µM,0.231 nm,6.91 µM,0.231 nm,0.00621 s⁻¹,898 M⁻¹ s⁻¹,–,–,–,–,–
HSV2-gE_A248G V340W_gI (from UniProt P89475 21-416; P06764 21-256) (receptor),39.2 µM,0.0826 nm,39.2 µM,0.0826 nm,0.0107 s⁻¹,273 M⁻¹ s⁻¹,–,–,–,–,–
HSV2-gE_A248K V340W_gI (from UniProt P89475 21-416; P06764 21-256) (receptor),1e-06 µM,0.0613 nm,< 1e-06 µM,0.0613 nm,< 1e-07 s⁻¹,3780 M⁻¹ s⁻¹,–,–,–,–,–
HSV2-gE_A248T F322A_gI (from UniProt P89475 21-416; P06764 21-256) (receptor),7.01 µM,0.167 nm,7.01 µM,0.167 nm,0.00629 s⁻¹,897 M⁻¹ s⁻¹,–,–,–,–,–
HSV2-gE_A248T V340M_gI (from UniProt P89475 21-416; P06764 21-256) (receptor),1e-06 µM,0.108 nm,< 1e-06 µM,0.108 nm,< 1e-07 s⁻¹,4440 M⁻¹ s⁻¹,–,–,–,–,–
HSV2-gE_A248T V340W_gI (from UniProt P89475 21-416; P06764 21-256) (receptor),1e-06 µM,0.0605 nm,< 1e-06 µM,0.0605 nm,< 1e-07 s⁻¹,3020 M⁻¹ s⁻¹,–,–,–,–,–
HSV2-gE_A248T_gI (from UniProt P89475 21-416; P06764 21-256) (receptor),12.2 µM,0.123 nm,12.2 µM,0.123 nm,0.00574 s⁻¹,470 M⁻¹ s⁻¹,–,–,–,–,–
HSV2-gE_H245A R320D_gI (from UniProt P89475 21-416; P06764 21-256) (receptor),6.42 µM,0.116 nm,6.42 µM,0.116 nm,0.00704 s⁻¹,1100 M⁻¹ s⁻¹,–,–,–,–,–
HSV2-gE_H245A R320G_gI (from UniProt P89475 21-416; P06764 21-256) (receptor),1.41 µM,0.192 nm,1.41 µM,0.192 nm,0.00589 s⁻¹,4190 M⁻¹ s⁻¹,–,–,–,–,–
HSV2-gE_H245A R320T_gI (from UniProt P89475 21-416; P06764 21-256) (receptor),1.16 µM,0.23 nm,1.16 µM,0.23 nm,0.00537 s⁻¹,4620 M⁻¹ s⁻¹,–,–,–,–,–
HSV2-gE_H245D_gI (from UniProt P89475 21-416; P06764 21-256) (receptor),17 µM,0.133 nm,17 µM,0.133 nm,0.00772 s⁻¹,453 M⁻¹ s⁻¹,–,–,–,–,–
HSV2-gE_H245E_gI (from UniProt P89475 21-416; P06764 21-256) (receptor),11.9 µM,0.168 nm,11.9 µM,0.168 nm,0.00705 s⁻¹,595 M⁻¹ s⁻¹,–,–,–,–,–
HSV2-gE_R314P V340W_gI (from UniProt P89475 21-416; P06764 21-256) (receptor),–,–,–,–,–,–,–,–,–,–,Kd (human IgG (human) [3]): 0.56 µM; Response (human IgG (human) [3]): 0.134 nm; koff (human IgG (human) [3]): 0.00355 s⁻¹; kon (human IgG (human) [3]): 6340 M⁻¹ s⁻¹
HSV34 (HSV2-gE_gI) (from UniProt P89475 21-416; P06764 21-256) (receptor),–,–,–,–,–,–,0.116 µM,100%,0.000541 s⁻¹,3870 M⁻¹ s⁻¹,–
HSV40 (HSV2- gE_289_insert ADIGL_gI) (from UniProt P89475 21-416; P06764 21-256) (receptor),–,–,–,–,–,–,0.628 µM,18%,0.00519 s⁻¹,8240 M⁻¹ s⁻¹,–
HSV41 (HSV2-gE_338_insert ARAA_gI) (from UniProt P89475 21-416; P06764 21-256) (receptor),–,–,–,–,–,–,1.6 µM,7%,0.00309 s⁻¹,2010 M⁻¹ s⁻¹,–
HSV42 (HSV2- gE_346_insert ADIT_gI) (from UniProt P89475 21-416; P06764 21-256) (receptor),–,–,–,–,–,–,–,–,< 1e-07 s⁻¹,5690 M⁻¹ s⁻¹,–
HSV43 (HSV2- gE_H245A_gI) (from UniProt P89475 21-416; P06764 21-256) (receptor),–,–,–,–,–,–,–,–,< 1e-07 s⁻¹,9410 M⁻¹ s⁻¹,–

Substance,Kd (human IgG (human) [1]),Response (human IgG (human) [1]),Kd (human IgG (human) [2]),Response (nm) (human IgG (human) [2]),koff (human IgG (human) [2]),kon (human IgG (human) [2]),Kd [4],Relative Affinity (%) compared to control construct HSV34 [4],koff [4],kon [4],also measured
HSV44 (HSV2- gE_H245K_gI) (from UniProt P89475 21-416; P06764 21-256) (receptor),–,–,–,–,–,–,0.673 µM,17%,0.00628 s⁻¹,9550 M⁻¹ s⁻¹,–
HSV45 (HSV2- gE_P317R_gI) (from UniProt P89475 21-416; P06764 21-256) (receptor),–,–,–,–,–,–,1.51 µM,8%,0.00347 s⁻¹,2340 M⁻¹ s⁻¹,Kd (human IgG (human) [3]): 0.192 µM and 0.24 µM; Response (human IgG (human) [3]): 0.181 nm and 0.119 nm; koff (human IgG (human) [3]): 0.00137 s⁻¹ and 0.00156 s⁻¹; kon (human IgG (human) [3]): 7110 M⁻¹ s⁻¹ and 6520 M⁻¹ s⁻¹
HSV46 (HSV2- gE_P319A_gI) (from UniProt P89475 21-416; P06764 21-256) (receptor),–,–,–,–,–,–,0.0735 µM,158%,0.000482 s⁻¹,6630 M⁻¹ s⁻¹,–
HSV47 (HSV2- gE_P319R_gI) (from UniProt P89475 21-416; P06764 21-256) (receptor),–,–,–,–,–,–,2.55 µM,5%,0.00355 s⁻¹,1490 M⁻¹ s⁻¹,–
HSV48 (HSV2- gE_P319G_gI) (from UniProt P89475 21-416; P06764 21-256) (receptor),–,–,–,–,–,–,0.7 µM,17%,0.00556 s⁻¹,8130 M⁻¹ s⁻¹,–
HSV49 (HSV2- gE_P319K_gI) (from UniProt P89475 21-416; P06764 21-256) (receptor),–,–,–,–,–,–,1.71 µM,7%,0.00217 s⁻¹,1340 M⁻¹ s⁻¹,–
HSV50 (HSV2- gE_P319T_gI) (from UniProt P89475 21-416; P06764 21-256) (receptor),–,–,–,–,–,–,0.00891 µM,1300%,8.38e-05 s⁻¹,9460 M⁻¹ s⁻¹,–
HSV51 (HSV2- gE_H245A-P319A_gI) (from UniProt P89475 21-416; P06764 21-256) (receptor),–,–,–,–,–,–,–,–,< 1e-07 s⁻¹,11000 M⁻¹ s⁻¹,–
HSV52 (HSV2- gE_H245A-P319R_gI) (from UniProt P89475 21-416; P06764 21-256) (receptor),–,–,–,–,–,–,2.53 µM,5%,0.00304 s⁻¹,1310 M⁻¹ s⁻¹,–
HSV53 (HSV2- gE_H245A-P319G_gI) (from UniProt P89475 21-416; P06764 21-256) (receptor),–,–,–,–,–,–,0.807 µM,14%,0.00349 s⁻¹,4480 M⁻¹ s⁻¹,–
HSV54 (HSV2- gE_H245A-P319K_gI) (from UniProt P89475 21-416; P06764 21-256) (receptor),–,–,–,–,–,–,0.883 µM,13%,0.00284 s⁻¹,3370 M⁻¹ s⁻¹,–
HSV55 (HSV2- gE_H245A-P319T_gI) (from UniProt P89475 21-416; P06764 21-256) (receptor),–,–,–,–,–,–,0.201 µM,58%,0.00105 s⁻¹,5330 M⁻¹ s⁻¹,–
HSV56 (HSV2- gE_A337G_gI) (from UniProt P89475 21-416; P06764 21-256) (receptor),–,–,–,–,–,–,0.0989 µM,117%,0.00082 s⁻¹,8430 M⁻¹ s⁻¹,–
HSV57 (HSV2- gE_P319D_gI) (from UniProt P89475 21-416; P06764 21-256) (receptor),–,–,–,–,–,–,9.58 µM,1%,0.00403 s⁻¹,362 M⁻¹ s⁻¹,–
HSV58 (HSV2- gE_P319S_gI) (from UniProt P89475 21-416; P06764 21-256) (receptor),–,–,–,–,–,–,0.116 µM,100%,0.000604 s⁻¹,5290 M⁻¹ s⁻¹,–
HSV59 (HSV2- gE_S338D_gI) (from UniProt P89475 21-416; P06764 21-256) (receptor),–,–,–,–,–,–,0.89 µM,13%,0.00128 s⁻¹,1550 M⁻¹ s⁻¹,–
HSV60 (HSV2- gE_N241A_gI) (from UniProt P89475 21-416; P06764 21-256) (receptor),–,–,–,–,–,–,0.0819 µM,142%,0.000727 s⁻¹,8990 M⁻¹ s⁻¹,–
HSV61 (HSV2- gE_R320D_gI) (from UniProt P89475 21-416; P06764 21-256) (receptor),–,–,–,–,–,–,2.4 µM,5%,0.0012 s⁻¹,514 M⁻¹ s⁻¹,–
HSV62 (HSV2- gE_N241A-R320D_gI) (from UniProt P89475 21-416; P06764 21-256) (receptor),–,–,–,–,–,–,4.2 µM,3%,0.00129 s⁻¹,317 M⁻¹ s⁻¹,–
HSV63 (HSV2- gE_N241A-P319D_gI) (from UniProt P89475 21-416; P06764 21-256) (receptor),–,–,–,–,–,–,–,–,< 1e-07 s⁻¹,3720 M⁻¹ s⁻¹,–
